Experimental data as given in article PMC11443169 (Life Science Alliance, 2024).
Ends that are not written are not given here.

Assays:
[1] = Recovery of Aβ variants for elution from reversed-phase HPLC under different conditions; assay type: physicochemical
Text: Senile plaques, which are one of the key pathological features of Alzheimer’s disease (AD), are composed of amyloid β peptides (Aβs) with a variety of secondary and tertiary structures because of post-translational modifications ([Saido et al, 1995], [1996]). This heterogeneity appears to affect catabolism and aggregation rates, resulting in structural changes in plaques. […] In contrast, transgenic (Tg) mice overexpressing human APP with pathogenic mutations primarily accumulate Aβ1-40 and Aβ1-42 ([Sturchler-Pierrat et al, 1997]; [Kawarabayashi et al, 2001]). […] There is, however, some discrepancy among different reports regarding the quantity of Aβ variants, which vary depending on the methods employed. […] However, the use of a heated (50°C) basic solvent containing betaine and limited proteolysis using lysyl endopeptidase allows full recovery in HPLC and detection by mass spectrometry, respectively.
Supplementary file : Table S1. Recovery of various Aβ variants for elution from reversed-phase HPLC under different conditions. TFA, trifluoroacetic acid; TEA, triethylamine.

Procedure for rat hippocampus: (A, B, C, D, E, F) Variants of ^3H/^14C-Aβx-42 were subjected to in vivo degradation and subsequent analysis as previously described ([Iwata et al, 2000]). Briefly, 0.5 μg Aβx-42 peptide dissolved in phosphate-buffered saline was unilaterally injected into the CA1 sector of the rat hippocampus and subjected to catabolism until the animals were euthanized by decapitation at the indicated time points. There was no contamination of the injection area by plasma or cerebrospinal fluid as immunohistochemically confirmed using anti-rat IgG. After extraction, the products were analyzed by reversed-phase HPLC connected to a flow scintillation monitor. The HPLC profiles in a ^14C mode at time 0 (red), 10 (blue), and 30/60 (black) minutes after the in vivo injection are shown. […] The major peaks at time 0 indicated by the arrows correspond to the intact substrates.
Digitized data of remaining amounts of intact Aβx-42 shown in Fig 1 were plotted, and then exponential approximation curves were drawn using Microsoft Excel. Each analysis of the in vivo catabolic rate of the Aβx-42 variant was carried out by independent experiments with more than five time points.
Male, 8–10-wk-old, Sprague Dawley rats used for in vivo analysis of metabolic rates of radiolabeled Aβx-42 peptides were obtained from Japan SLC. […] They were housed in plastic cages. […]

Row | Substance | Half-life (in vivo half-lives of Aβx-42) (rat hippocampus) [min] | Recovery for elution from reversed phase HPLC ([1]; solvent TEA/betaine (basic), temperature 50℃) [%] | Recovery for elution from reversed phase HPLC ([1]; solvent TFA, temperature 20℃) [%] | Recovery for elution from reversed phase HPLC ([1]; solvent TFA, temperature 50℃) [%]
1 | Aβ17L-42: Aβ17L-42 (p3 fragment), internally radiolabeled (LVFFAEDVGSNKGAIIGLMVGGVVIA; also: internally radiolabeled, site not given here; UniProt P05067 688-713, looked up, fragment) | 34.69 |  |  | 
2 | Aβ1-40: amyloid β peptide 1-40 |  | 100 | 100 | 100
